Measurements from the nanobody polyreactivity screen of Harvey et al. (2022).

Assay: yeast display, Sf9 membrane polyspecificity reagent, FACS + sequencing; frameworks hold sequencing errors
Outline: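 Nanobodies came from a synthetic yeast display library in Saccharomyces cerevisiae BJ5465, induced with galactose for 36–48 hours and stained for 1 hour at 4 °C with 10% biotinylated, detergent-solubilized Sf9 membrane reagent. Cells were enriched on streptavidin microbeads and then FACS-sorted, with low and high (top ~1%) gates set on anti-HA fluorescence for expression and streptavidin fluorescence for reagent binding. Each polyreactivity label reflects the gate a clone came from. Genes were amplified by colony PCR, sequenced by MiSeq 2 × 250 and filtered by CDR length.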

Row | Sequence | polyreactivity (PSR sort gate)
1 | QVQLVESGGGLVQAGRSLRLSCAASGRIFYRKAMGWYRQAPGKERELVAGITSGGSTNYADSVKGRFTISRDNEKNTFDLQMNSVKPEDTAVYYCAKASPAKFYSEAGYDYWGQGTQVTVSS | low polyreactivity
2 | QVQLVESGGGLVQAGGSLRLSCAASGRIFNYNAMGWYRQAPGKERELVATITYIGTGTYYADSVKGRFTISRDNAKNTVYLQMNSQKPDDTAVYYCAASYRSRVWWRFDYWGQGSQVTVSS | high polyreactivity
3 | QVQLVESGGGLVQAGGSLLLSCAASGSIFDAYAMGWYRQSRGKERELVAAITSGGSTYYADSVKGRFTISRDNAKNNVYLQMNSLKPEDTAVYYCAAQYYDYKTTYDYWGQGTQVTVSS | high polyreactivity
4 | QVQLVESGGGLVQAGGSLRLSCAASGSTFYTYAMGWYRQAPGKERELVAAISYRGGSTYYADSVKGRFTISRDNAKNTVYLQMNSLKPEDTSVYYCKVDGVVVGTKRGGYDYWGQGTQVTVSS | low polyreactivity
5 | QVQLVESGGCLVQAGGSLRLSCAASGFTFVGYAMGWYRQAPGKERELVAAITSSGGSTYYADSVKGRFTISRDNAKNTVYLQMNSLKPEDTAVYYCAAPAPVLSTQKRFDSWGQGTQVTVSS | low polyreactivity
6 | QVQHVESGAGIVQAGGSLRLSCAASGSTFKRYAMGWYRQAPGKERELVAAITWRGGSTYYADSVKGRFTISRDNAKNTVYLLMNSLKPDDTAVYYCASDYVYRYDYWGQGTQVTVSS | high polyreactivity
7 | QDQLVESGGGLVPAGGSLRLSCAASGGILPQYAMGWYRQAPGKERELVAAITRGGARTYYADSVKGRFTISRDNAKNTVYLQMTSLKPEDTAVYYCAARGPGYQLYDYWGQGTQVTVSS | high polyreactivity
8 | QVQLVESGGGLVQAGGSLRLSCDASGSTFTRYVMGGYRQPPGKERELVAVISSSAGSTYYADSVKGRFTISRDNAKNTVYLQMNSLKPEDTAVYYCAARYSAKHYGYGYWGQGTQVTVSS | high polyreactivity
9 | QVQLVESGGGLVQSGGSLRLSCAASGRTLGYNAMGWYRQAPGKERELVASINSGVSTNYADSVKGRFTISRDNAKNTVYLQMNSLKPEDTAVYYCAAEKYGRGDGREGWEYDYWGQGTQVTVSS | low polyreactivity
10 | QVQLVESGGGLVQAGGSLRLSCDASGLILGINSMGWYRQAPGKERELVAAISSSGGRTSYADSVKGRFTISRDNAKNTVYLQMNSLKPEDTAVYYCAKRRTTYSHYDYWGQGTQVTVSS | low polyreactivity
11 | QVQLVESGGGLVQAGGSLRLFCAASGSTFISYAMGWYRQAPGKERELVAAISSSGGSTYYAYSVKGRFTISRDNAKNNVYLQMNSLKPEDTAVYYCAAEAVYYRSWRYYYCGQGTQVTVSS | high polyreactivity
12 | QVQLVESGGGLVQAGGSLRLSCAASGRTFKYYAMGWYRQAPGKERELVATISYNGASTYYADSVKGRFTISRDNAKNTVYLQMNSLKPEDTAVYYCAAGYLWRGRLGYWGQGTQVTVSS | high polyreactivity
13 | QVQLVESGGGLVQAGGSLRLSCAASGSIFGQNAMGWYRQAPGKERELVAAITSGAGITYYADSVKGRFTISRDNAKNTVYLQMNSLKPEDPAVYYCNAVPSWSPSPLFDYWGQGTQVTVSS | low polyreactivity
14 | QVQLVESGGGLVQAGGSLRLSCAASGSTFWNYAMGWYRQAPGKERELVASIDSSDGRTYYADSVKGRFTSSRDNAKNTVFLQMTRQKPEDTAVDYCAKDAYAVELRPYSKLSSRADGYWGHGTQVTVSS | low polyreactivity
15 | QVQLVESGGGLVQAGGSLRLSCAASGIILGSYAMGWYRQAPGTERELVAGITSGGGTYYADSVKGRFTISRDNAKNTVYLQMNSLKPEDTAVYYCAKLYFHYYRYGYWGQGTQVTVSS | low polyreactivity
16 | QVQLVESGGGLVQAGGSLSLICAASGFIFDVYAMGWYRQAPGKERELVAAISRSGGSTHYADSVKGRFTISRDNAKNTVYLQMNSLKPEDTAVYYFATRIRVGYAKYDYWGQGTQVTVSS | high polyreactivity
17 | QVQLVESGAGLVQAGGSLRLSCAASGRTFPYYVMGWYRQAPGKERELVAAIRRTGGSTYYADSVKGRFTISRDNAKNTVYLQMNSLKPEDTAVYYCTQRHSILYEGGYDYWGQGTQVTVSS | low polyreactivity
18 | QVQLVESGGGLVQAGGSLRLICAASGSIFTYYAMGWYRQAPGKDRDLVAAINWSGGSTYYADSVKGRFTISRDNAKNTVYLQINSLNPEDTAVYYCSNDYYARRHSPRYDYWGQGTQVTVSS | low polyreactivity
19 | QVQLVESGGGLVQAGGSLRLSCAASGSIFTFYAMGWYRQAPGKERELVAAISSSGTSTYYADSVQGRFTISRDNAKNTVYLQMNSLKPEDTAVYYCNVPMPPAKAEYGYWGQGTQVTVSS | high polyreactivity
20 | QVQLVESCGGIVQAGGSLRLSCAASGSILRSNSMGTYRQAPGKERELVAAISSRGGSTYYADSVKGRFTISRDNAKNTVYLQMNSLNPEDTAVYYCNKASYTVISYDEYDYWGQVTQVTVSS | high polyreactivity
21 | QVQLVESGGGLVQAGGSLRLSCAASGRIFSEYALGWYRQAPGKERELVAAITRRGGSTYYADSVKGRFTISRYNAKNTVYLQMNSLKPEDTAVYYCNALLTGGYQDSYPADYWGQGTQVTVSS | high polyreactivity
22 | QVQLVESGGGLVQAGGSLRLSCAASGFIFYNYAMGWYRQAPGKERELVADINSTGITYYADSVKGRFTISRDNAKNTVYLQMNSLKPEDTAVYYCAKDILTSSYRAYSPFEYGYWGQGTQVTVSS | low polyreactivity

Row | Sequence | polyreactivity (PSR sort gate)
23 | QVQLVDSGGGLVQAGGSLRLSCAASGRIFDRNAMGWYRQAPGKERDLVARIDPGDDTNYADSVKGRFTISRDNAKNTVYLQMNSQKPEDTAVYYCATDPDYVLYRTAYYEYDYWGQGTQVTVSS | low polyreactivity
24 | QVQLVESGGGLVQAGGSLRLSCAASGRTFIDYGMGWYRQAPGKERELVAAISSGGSTYYADSVKGRFTISRDNAKNTVYLQMNSLKPEDTAVYYCAAPGFKYDVYAGYVLNGGGDYWGQGTQVTVSS | low polyreactivity
25 | QVHLEESGGGLVQAGGSLRLSCAASGFTFGPYAMGWYRQAPGKERELDATIRSGDSTNYADSVKGRFTISRDNAKNTVYLQMNSLKPEDTAVYYCARDARASARRKRYDYWGQGTQVTVSS | low polyreactivity
26 | QVQLVESVGGLVQAGGSLRLSCAASGRTFGRYAMGWYRQAPGKERELVAGISRSGDSTHYADSVKGRFTISRDNAKNTVSLQMNSLKPEDTAVYYCNKETPTIGARKYEYWGQGTQVTVSS | low polyreactivity
27 | QVQLVESGGGLVQAGGSLRLSCAASGFTFGYYAMGWYRQAPGKERELVATIDRGGGTSYADSVKGRFTISRDNAKNTVYLQMNSLKPEDTAVYYCNRAGYGAKARRYRSYWGQGTQVTVSS | high polyreactivity
28 | QVQLVESGGGLVQAGGSLRLSCAASGSTLVGNTMGCYRQSPGKERELVAAITGVGSTNYADSVKGRFTISRDNAKNTVYLQMNSLKPEDTAVYYCAAQYSYTYIVSYLYDMDYWGQGTQVTVSS | low polyreactivity
29 | QVQLVESGGGLVQAGCSLRLSCAASGFIFWENGLGWYRQAPGKERELVAAISSGGGRTYYADSVKGRFTISRDNAKHTVYLQMNSLKPEDTAVYYCNRARYYREFDFWGQGTQVTVSS | high polyreactivity
30 | QVQLVESGGGLVQAGGRLRLSCAASGLTLQRYTKGWYRQAPGTERELVAAISRSGGGTYYADSVKGRFTISRDNAKNTVYLEMNSLKPEDTAVYYCAAGWYVYRPSRGYGYWGQGTQVTVSS | high polyreactivity
31 | QVQLVESGGGLFQAGGSLRLSCAASGYIFVRYAMGWYRQAPGKEREFVAAISSSGGSTRYADSVKGRFTISRDKAKYNVYLQMNSLKPEDTAVYYCAATRVARDGSPMYYWGQGTQVTVSS | high polyreactivity
32 | QVHLVESGGGLVQAGGSLRLSCAASGSIFRGYAMGWSRQAPGKERELVAAITSGGSTNYADSVNGRFTISRDNANNTVYLQMNSLKPEDTAVYYCNTVRWGRRTTFYYWGQGTQVTVSS | low polyreactivity
33 | QVQLVESGGGLVQAGGSLRLSCAASGRIFRYYAMGWYRPAPGKERELVAAITWRGDSTYYADSVKGRFTISRDNAKNTVYLQMNSLKPEDTAVYYCNKRWTDKYDSWGQGTQVTVSS | high polyreactivity
34 | QVQLVESGGGLVQAGGSLRLSCAASGFIFSYNAMGWYRTAPGTERELDAAISSSGGTTYYADSVKGRFTISRYNAKNTVYLQMNSLKPEDTAVYYCAADGRTYHHLDGGWYRYDYWGQGTQVTVSS | low polyreactivity
35 | QVQLVESGGGLVQAGGSLRLSCAASGSTISSNAMGWYRQAPGKERELVAAIDSGGSTYYADSVKGRFTISRDNAKNTVYLQMNSLKPEDTAVYYCNPERETYDTGRAVLPGGYWGQGTQVTVSS | low polyreactivity
36 | QVQLVESGGGLVQAGGSLRLSCAASGRIFTWYAMGWYRQAPGKERELVAAISSAGRTYYADSVKGRFTISRDNAKNTVYLQMNSLKPEDTAVYYCAKVSKYRHFYTFDYWGQGTQVTVSS | high polyreactivity
37 | QVQLVESGGGLVQAGGSLRLSCAASGRIFSRNAMGWYRQAPRKEREFVAAISRRGTSTYYADSVKGRFTISRDNAKNTVYLQMHSLKPEDTAVYYCNAGGSPWYKPVYYRALYDYWGQGTQVTVSS | high polyreactivity
38 | QVHLVESGGGLVQAGGSLRLSCAASGSIFYYYGMGWYRQAPGIERELVAAISSGGRTYYADSVKGRFTISRDNAKNTVYLQMDSLKPEDTAVYYCAKPGSYAVYSGWHDYWGQGTQVTVSS | high polyreactivity
39 | QVQLVESGGGLVQAGGSLRLRCAATGHIFYYYTMGWSRQAPGKERELVAGITIGGSTNYADSVKGRFTISRDNAKNTVYLQMKSLKPEDTAVYYCNVVKYVYIYSYWEYYYWGQGTQVTVSS | low polyreactivity
40 | QFQLVESGGGLVQAGGSLRLSCAASGSTFRGYTMGWYRQAPGKERELVAAIRSTTGRTYYADSVKGRFTISRENAKNTVYLQMNSLKPEDTAVYYCNKAYPREYYYWGQGTQVTVSS | high polyreactivity
41 | QVQLVESGGGLVQAGGSLRLSCAASGSTFFPYAMGWYRQAPGKERELVAGISSDGGTSYADSVKGRFTISRDNAKNTVYLQMNSLKPEDTAVYYCAARGLLWYYSWRYYYWGQGTQVTVSS | low polyreactivity
42 | QVQLVESGGGLVQAGGSLRLSCASSGSTLRWYAMGWYRQAPGKERELVARISWTTGSTYYADSVKGRFTISRDNAKNTVYLQMNSLKPEDTAVYYCAKGKKSSRSGIYNYWGQGTQVTVSS | high polyreactivity
43 | QVLLVESGGGLVQAGGSLRLSCAASGFTFQLYAMGWYRQAPGKEREIVSAIRRNGGSTYYADSVKGRFTISRDNAKNTVYLQMNSLKPDDTAVYYCAADWYSYLHGTKYGYWGQGTQVTVSS | high polyreactivity
